Consider 4 molecules from article PMC8351461 (Frontiers in Immunology, 2021).

Holding throughout (test): pull-down
Conditions in all cases: both partners purified

The target of test [1] is T1, SARS-CoV-2 Nucleocapsid (N) protein, full-length (SARS-CoV-2, reference Wuhan-Hu-1 …, UniProt P0DTC9).
T1 construct: also called full-length N; FL

Test [2] deals with T2, SARS-CoV-2 N protein C-terminal intrinsically disordered region (residues 365-419) (SARS-CoV-2, reference Wuhan-Hu-1 …, UniProt P0DTC9).
T2 construct: also called C-IDR

Test [3] has as its target T3, SARS-CoV-2 N protein RNA-binding domain (residues 49-174) (SARS-CoV-2, UniProt P0DTC9).
T3 construct: also called N^49-174; N^RBD

B1: single-domain antibody sdAb-N3 (VHH)
VHH: KVKLQQSGGGLVQTGGSLRLSCAPSGRTFSVNAMGWYRQAPGKQREPVALISTGGSTNYADSVKGRFTISRDNVKNTVYLQMNTLKPEDTAVYYCYTERWKPRGIERDWGQGTQVTVSS
notes: not shown: His6, C-terminal, kept
On to B1, for which the binding result in test [1] and in test [2] was “binds” in each case.

B2: single-domain antibody sdAb-C2 (VHH)
VHH: EVQLQASGGGLVRPGGSLRLSCAASGFTFSSYAMMWVRQAPGKGLEWVSAINGGGGSTSYADSVKGRFTISRDNAKNTLYLQMNSLKPEDTAVYYCAKYQAAVHQEKEDYWGQGTQVTVSS
notes: as for B1
Take B2: the binding result in test [1] and in test [3] was “binds” in each case.

B3: single-domain antibody sdAb-E2 (VHH)
VHH: EVQLQASGGGLVQAGGSLRLSCAASGRTDSTQHMAWFRQAPGKEREFVTAIQWRGGGTSYTDSVKGRFTISRDNAKNTVYLEMNSLKPEDTAVYYCATNTRWTYFSPTVPDRYDYWGQGTQVTVSS
notes: as for B1
For B3, in test [1], the binding result is recorded as “binds”.

B4: single-domain antibody sdAb-B6 (VHH)
VHH: EVQLQASGGGLVQAGDSLRLSCVAVSGRTISTFAMGWFRQAPGKEREFVATINWSGSSARYADPVEGRFTISRDDAKNTVYLEMSSLKPGDSAVYYCASGRYLGGITSYSQGDFAPWGQGTQVTVSS
notes: as for B1
With B4, in test [1], the binding result is on record as “binds”.
